{"source": "paper PMC4125281", "about": "“Capsid Protein VP4 of Human Rhinovirus Induces Membrane Permeability by the Formation of a Size-Selective Multimeric Pore” (PLoS Pathogens, 2014)", "key": {"[1]": {"biological_target": "the molecule itself", "test": "SDS-PAGE without cross-linking (multimers that survive SDS); VP4His incubated with liposomes, no DSP (Fig. 5B lane 5); non-reducing SDS-PAGE, western blot with antisera to VP4"}, "[2]": {"biological_target": "the molecule itself", "test": "cross-linking; VP4His incubated with liposomes (50 uM lipid) at 25 C for 1 hr, DSP 0.5 mM or 1 mM for 20 min at 25 C; non-reducing SDS-PAGE, western blot with antisera to VP4; cross-linking reversed with 50 mM DTT in some samples"}}, "note": "*: point of attachment. Myristoyl = CCCCCCCCCCCCCC(=O)*"}
{"protein": "recombinant myristoylated human rhinovirus 16 VP4 with six histidines at the C-terminus (VP4His) (natural protein, capsid protein VP4 of human rhinovirus 16 (HRV16), the cut product VP4 of the genome polyprotein; native VP4 about 7.4 kDa, VP4His about 8.2 kDa; Plasmid pETVP4His (pET23d); also called recombinant VP4; not shown: His6, C-terminal, kept) Myristoyl-MGAQVSRQNVGTHSTQNMVSNGSSLNYFNINYFKDAASSGASRLDFSQDPSKFTDPVKDVLEKGIPTLQ-{H2N-H2N-H2N-H2N-H2N-H2N}", "values": [{"measurement": "stoichiometry N", "setting": "[1]", "result": 2}, {"measurement": "stoichiometry N", "setting": "[2]", "result": 6}]}
